Assay results: patent publication US20260125484A1 (GMAX BIOPHARM, published 2026)
Where a chain is given by its changes, count along the chain named. Each block holds one binder with its values, some of them ahead of it.

Tests used:
[1] = molecular target: T1, human endothelin receptor A (hETAR) (human, UniProt P25101 21-427); assay: cell-based or functional assay
T1 sequence: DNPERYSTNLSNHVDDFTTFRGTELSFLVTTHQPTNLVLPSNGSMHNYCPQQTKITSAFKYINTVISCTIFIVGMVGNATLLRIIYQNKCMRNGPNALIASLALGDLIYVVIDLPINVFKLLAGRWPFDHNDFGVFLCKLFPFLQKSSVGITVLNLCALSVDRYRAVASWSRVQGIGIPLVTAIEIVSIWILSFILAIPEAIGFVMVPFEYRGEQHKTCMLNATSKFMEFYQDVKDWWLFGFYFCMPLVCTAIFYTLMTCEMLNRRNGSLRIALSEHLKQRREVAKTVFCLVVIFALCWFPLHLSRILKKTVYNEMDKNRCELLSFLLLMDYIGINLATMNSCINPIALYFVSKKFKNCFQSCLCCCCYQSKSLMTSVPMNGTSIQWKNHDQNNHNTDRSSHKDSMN

[2] = molecular target: T1, human endothelin receptor A (hETAR); assay: FACS on CHO-DHFR-ETAR cells
Protocol: 10⁵ CHO-DHFR-hETAR cells were digested and collected with PBS containing 10 mM EDTA, separately added into 1.5 mL EP tubes, the supernatant was discarded after centrifugation, and the negative control sample was resuspended in a flow loading buffer (PBS, 2% FBS). Positive treatment group cells in each tube were added with 200 μL of the antibody supernatant, and incubated at room temperature; after the completion of the incubation, the cells were centrifuged at 1500 rpm, the supernatant was discarded, the cell precipitate was washed once with a flow loading buffer, and centrifuged again, and the cells were resuspended; 1:50 diluted FITC labeled goat anti-mouse fluorescent secondary antibody (BD Pharmingen) was added to the cell resuspension solution at 200 μL/well, and the cells were incubated at room temperature for 30 min in the dark; and the cells were centrifuged, the supernatant was discarded, the cell was washed once with a flow loading buffer, and centrifuged, the cell precipitate was resuspended with a flow loading buffer for on-machine detection. The supernatant expressing recombinant anti-ETAR functional antibody was specifically bound to CHO-DHFR-ETAR cells expressing ETAR. The gray peaks and dotted line peaks were negative controls; and the solid line peak corresponding to the hybridoma cell supernatant shifted obviously to the right.

IC50, calcium flux inhibition curve [1]: 88 nM
B1: ETAR antibody A-9 (antibody, mouse IgG1, V domains shown)
VH: EVQLQQPGGGLVQPGGSLTLSCATSGFTFSSYGMSWVRQTPAKRLELVATISTNGATANYPDSVKGRFTISRDNAKSTLYLQMRSLKSEDTAMYYCATEKGAMGYWGQGTSVTVSS
VL: DVLMTQTPLSLPVSLGDQASISCRSSQNIVHSTGNTYLEWYLQKPGQSPKLLIYKVSNRFSGVPNRFRGSGSGTDFTLKITRVEAEDLGIYYCFQGSHFPFTFGSGTKLEIKR

binding result [2]: binds
B2: ETAR antibody A-7 (antibody, mouse IgG1, V domains shown)
VH: EVHLVESGGGLVQPGGSLKLSCAASGFTFSTYGMSWVRQTPDKRLELVATINTNGGTTYYRDSVKGRFTISRDNAKNTLYLQMSSLKSDDTAMYYCARDYGAMDYWGQGTSVTVSS
VL: B1 VL with Q18H, N28Y, N35T, K50Q, N65D, R68T, K79R, T81S, I90V, Y92F
notes: also called L7H7

binding result [2]: binds
B3: ETAR antibody A-2 (antibody, mouse IgG1, V domains shown)
VH: QIQLVQSGAELAKPGASVRMSCETSGYTFTSYWIHWIKERPGQGLEWIGYINPDTDYSEYNQKFKDKARLTADKSSTTAYMELNSLTFDDSAVYYCASAGYYFFDFWGQGTTLTVSS
VL: DIQMTQSPASLSTSVGETVTITCRASENIYSYLAWYQQRQGKSPHLLVNNAKTLAEGVPSRFSGSGSGTHFSLRISGLQPEDFGSYYCQHHYGIPFTFGGGTKLSIKR
notes: also called L2H2

binding result [2]: binds
B4: ETAR antibody A-12 (antibody, mouse IgG1, V domains shown)
VH: EVKLVESGGRLVQPGNSLRLSCATSGFTFSDYYMSWVRQTPGRALEWLSFIRNRANGYTTEYSASVKGRFTISRDNSQSILYLHMSTLRPEDSATYYCVRDSYHYGYFDVWGAGTTVTVSS
VL: EIQMTQTPSSLSASLGDRVTITCSASQGINNYLNWYQQKPGGKTRLLIYYTSTLQSGVPSRFSGSGSGTHYSLTISNLEPEDIATYYCQQFSKLRTFGGGTRLEIKR
notes: also called L12H12
